Data from the nanobody polyreactivity screen of Harvey et al. (2022).

assay: yeast display, Sf9 membrane polyspecificity reagent, FACS + sequencing; frameworks hold sequencing errors
Method in brief: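 Genes from sorted yeast were amplified by colony PCR, read by MiSeq 2 × 250 sequencing and filtered on CDR length. These cells carried a synthetic nanobody library in Saccharomyces cerevisiae BJ5465 and were sorted by FACS into low and high (top ~1%) gates on anti-HA and streptavidin fluorescence. Polyreactivity is labelled according to the gate of origin.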

Row | Sequence | polyreactivity (PSR sort gate)
1 | QVQLVESGGGLVHAGGSLLLSCSASGRTFDSNAMGWSRQAPGKERELVAAISGSGDTTYYADSVKGRFTISRDNAKNTVYLQMNSLKPEDTAVYYCADDHDSSGSGYEYWGQGTEVTVSS | low polyreactivity
2 | QVHIVESGGGLVQAGGSLRLSSAASGRIFYRYAMGWYRQAPGKERELVAAISRRGGSTYYADSVKGRFTISRDNAKNTVYLQMNSLKPEDTAVYYCNVYRSAFSYDSWGQGTQVTVSS | high polyreactivity
3 | QLQLVESGGGLVQAGGSLRLSCAASGLTFQYYDMGRYRQAPGKERELVDVIRGSGTSTYYADSVKGRFTISRDNAKNTVYLQMNCLKPEDTAVYYCAAPYQYRRTGRVLGKYDSWGQGTQVTVSS | high polyreactivity
4 | QDQLVDSGGGLVQAGGSLRLSCAASGRIIFYYTMGSYSQAPGKESELVAAINSTGSTNYADSVKGRFTISRDNAKNTVYLQMNSLKPEDTAVYYCNAGTRYIFLYPPFLGAAFDYWGQGTQVTVSS | low polyreactivity
5 | QVQLVESGGGLVQAGGSLRLSCAASGFTFYAYAMGWYRQAPGKERELVAAISRTGGRTYYADSVKGRFTISRDNAKNTVYLQMNSLKPEDTAVYYCNRAGLHSTGYDYWGQGTQVTVSS | high polyreactivity
6 | QVQLVESGRGLVQAGGSLRLSCAASGRIFTHYAMGWYRQAPGKERELVAAITSSSGSTYYADSVKGRFTISRDNAKNTVYLPMISLKPEDTAVYYCAASRYGKNGKFHYWGQGTQVTVSS | high polyreactivity
7 | QVQLVESGGGLVQAGGSLRLSCAACGSISVYNAMGWYRQAPGKERELVAAISWSGGRTSYADSVKGRFTISRDNAKNTVYLQMNSLKPEDTAVYYCAADELTVMWDEDYWGQGTQVTVSS | low polyreactivity
8 | QVQLVESGGGLVQAGGSLRLSCAASGSIFRNNAMGWYRQAPGKERELVASITRRGGSTYYADSVKGRFTISRDNAKNTVYLQMNSLKPEDTAVYYCAATTQHRYKLNYWGQGTQVTVSS | high polyreactivity
9 | QVQLVESGGGLVQAGGSLRLSCAASGRTFQWYVMGWYRQAPGKERELVAAITKSGGSTFYADSVKGRFTISRDNAKNTVYLQMNSLKPEDTAVYYCAASGRYAIVLGDQYYGYYYWGQGTQVTVSS | high polyreactivity
10 | QVQLVESGGGLDQAGGSLRLSCAAYGRILHFYAMGWYRQAPGKERELVSAIRWSSGRTYYADSVKGRFTISRDNAKNTVYLQMNSLKPEDTAVYYCAANNGYGMDYWGQGTQVTVSS | high polyreactivity
11 | QVQLVESGGGLVQAGGSLRLSCAASGRTFYRYAMGWYRQAPGKERELVAAITGGGRTYYADSVKGRFTISRDNAKNTVYLQMNSLKPEDTAVYDCAAVVLRRPAYDYWGQGTQVTVSS | low polyreactivity
12 | QVQLVESGGGLVQAGGSLRLSCSASGSIFSENTMGGYRQAPGKKRELVADITSGGSTNYADSVKGRFTISRDNAKNTVYLQMNSLKPEDTAVYYCAADYNGEYDYWGQGTQVTVSS | low polyreactivity
13 | QVQLEESGGGLVQAGGSLRLSCAASGINLTGYTMGWYRKATGKERQLVAAITYGGTSTYYADSVKGRFTISRDNAKNTVYLQMNSLKPEDTAVYYCAALYRGPRYGYWGQGTQVTVSS | high polyreactivity
14 | QVQLVESGGGLVQAGGSLRLRCAASGSIFIGYAMGWYRQAPGKERELVAAITSGSITNYAYSVKGRFTISRDNAKNTVYLLMNSLKPEDTAVYYCNADVNFIDDDYWGQGTQVTVSS | low polyreactivity
15 | QVQLVESGGGLVQAGGSLRLSCAASGSTFYGYTMGWYRQAPGKERELVAVITSGGSTYYADSVKGRFTISRDNAKNTVYLQMNSLKPEDTAVYYCAKRYGYPAYGRPWRIGRTYDYWGQGTQVTVSS | low polyreactivity
16 | QVQLVESGGGLVQAGGSLRLSCAASGLTFYAYAMGWYRQAPGKERELVAHISWTGTTTYYADSVKGRFTISRDNAKNTVYLQMNSLKPEDTAVYYCAALIYRYAVAPPGYQYWLYYWGQGTLVTVSS | low polyreactivity
17 | QVQLVESGGGLVQAGGSLRLSCAASGFTFVPYAMGWYRLAPGKEREFVATISWSAGRTYYADSVKGRFTISRDNAKNTVYLQMNSLKPEDTAVYYCNTASYRGYDYWGQGTQVTVSS | high polyreactivity
18 | QVQLVESGGGLVQAGGSLRLSCAASGFTFYKNTMGWYRQAPGKERELVAAISSSGSSTYYADSVKGRFTISRDNAKNTVYLQMNSLKPEDTAVYYCAAGRFAYHDDYWGQGTQVTVSS | high polyreactivity
19 | QVQLVESGGGLVQAGGSLRLSCAASGSNFFSNAMGWYRQAPGKERELVAAITSTGGSTYYADSVKGRFTISRDNAKNTVYLQMNSLKPEVTAVYYCAAASRRGYYYWGQGTQVTVSS | high polyreactivity
20 | QVQLVESGGGLVQARGSLRLSCAASGSIFRGYGMRRYIQAPGKERELVAAINYSGGSTYYADSVKGRFTISRDNAKNTVYLQMNSLKPEDTGVYYCNNDYYRQRGEYYYWGQGTQVTVSS | high polyreactivity
21 | QVQLVESGGGLVQAGGSLRLSCAASGRIFRTYAMGWYRQAPGKERELVAAINSVDRTYYADSVKGRFTISRDNAKNTVYLQMNSLKPEDTAVYYCAATIAPTPGYIIYDYWGQGTQVTVSS | high polyreactivity
22 | QVQLVESGGGLVQAGGSLRLSCAASGITFGFNAMGWYRQAPGKERELVAAIRWGSGRTYYADSVKGRFTISRDNAKNTVYLQMNSLKPEDTAVYYCAAAPTTGKRPGYYYWGQGTQVTVSS | high polyreactivity

Row | Sequence | polyreactivity (PSR sort gate)
23 | QVQLVESGGGLVQAGGSLRLSCDASGRTFRFNDGGWYRQAPVKERELVAAITYRGGSTYYPDSVKGRFTISRDNAKNTVYLQMNSLKPDDTAVYYCAADYFWSRTQEFDYWGQGSQVTVSS | high polyreactivity
24 | QVQLVESGGGLVQAGGSLRLSCAASGRTFVVNDMGWYRQAPGKERELVAAINYNAGSTFYADSVKGRFTISRYNAKKTVYYQMNSLKPEDTAVYYCATDVYGYVEYDYWGQGTQVTVSS | low polyreactivity
25 | QVQLVESGGGLVQAGGSLRLSCAASGYTFNGYAMGWYRQAPGKERELVAAISWSGGSTYYADSVKGRFTISRDNAKNTFYLQMNSLKPEDTAVYYCARRGPSGVYNDGGYGLDDDYWGQGTQVTVSS | low polyreactivity
26 | QVQLVESGGGLVQAGGSLRLSCAASGFIFKRYTMGWYRQAPGKERELVAAISANGGRTYYADSVKGRFTISRDNAKNTVYLQMNSLKPEDTAVYYCAATRWDYTLYGYDYWGQGTQVTVSS | high polyreactivity
27 | QVQLVESGGGLVQAGGSLRLSCAASGSIFGYYAMGWYRQAPGKERELVAAISGSGGSTYYADSVKGRFTISRDNAKYTVYLQMNRLKPEDTAVYYCAAAYHGRHYYWGQGTQVTVSS | high polyreactivity
28 | QVQLVESGGGLVQAGGSLRLSCAASGSTLDYYAIGWYRQAPGKEREFVAGIDSAGSTNYADSVKGRFTISRDNAKNTVYLQMNSLKTGRYRGLYCNVGKTITTYAFPTFDYWGQGTQVTVSS | low polyreactivity
29 | QVQLVDSGGCLVQAGGSHRLSCSASGRIYPWYAMVWYRQAPGKERELVASITRNGGDTYYADSVKGRFTISRDNAKNTVYLQMNSLKPEDTAVYYCNAVRGYWFRQKDTIELGYWGQGTQVTVSS | high polyreactivity
30 | QVQLVESGGGLVQAGGSLRLSCAASGTTFYKYSMGWYRQAPGKERELVAAITSRGDRTYYADSVKGRFTISRDNANNTVYLQMNSLKPEDTAVYYCAATRWRDAGHSYDYWGQGTQVTVSS | high polyreactivity
31 | QVQLVESGGGLVQAGGSLRLSCAASGGTFYSYAMGWYRQAPGIEREVVAAISRRGGSTYYADSVKGRFTISRDNAKNTVYLLMNSLKPEDTAVYFCNTYIYQVRDDYWGQGTQVTVSS | high polyreactivity
32 | QVQLVESGGGLVQAGGSLRLSCAASGRTFPSYTMGWYSQAPGKERELVAAITWTGGSTYYADSVKGRFTISRDNAKNTVYLQMNSLKPEDTAVYYCADYDYWGQGTQVTVSS | low polyreactivity
33 | QVQLVESRGGLVQAGGSLRLSCAASGRTFGGYAMGWYRQAPGKERELVAAISTRGGTTYYADSVKGRFTISRDNAKNTVYLQMNSLKPEDTAVYYCAAVYLYYYNRYYYWGQGSQVTVSS | high polyreactivity
34 | QVQLVESGGGLVQAGGSLSLSCADSGSTFPKYAMGWYRQAPGKERELVASISVTTGSTYYADTVKGRFTISRDNAKNTVYLHMNSLKPVDTAVYYCAKRTYSRKLRGAYNYWGQGTQVTVSS | high polyreactivity
35 | QVQLLESGGGLVQAGGSLRLCCASSGYIFWGANMGWYRQAPGKEREFVAAIGHGTVTCYADSVKGRFTISRDNAKNTVYLQMNSLKPEDTAVYNCAAYSDVRKPHRYWGQGTQVTVVS | high polyreactivity
36 | QVQLVESGGGLVQAGGSLRLSCAASGGIFYGNVMGWYRQAPGKERQLVADITSVGSTYYADSVKGRFTFSRDNAKYTVYIQMNSLKPEDTAVYYCAAEPDHVAESHSGYDYWGQGTLVTVSS | low polyreactivity
37 | QVQLQESGGGLVQACGIQRLSCAATGSISEGQDMGWYSRSPGKERECVAGIAPGATTYYADSLKGRFTISRDNAKKTVYLQMTSLKPEDTAVYYCAARSVTETDHDYWGQGSQVTVSS | low polyreactivity
38 | QVQLVESGGGLVQAGGSLRLSCAASGSIFKIYAMGWYRQAHGKERELVAAISRRGSSTSYADSVKGRFTISRDNAKNTVYLQMNSLKPEDTAVYYCAARYISNPMDYWGQGTQVTVSS | high polyreactivity
39 | QVQLEESGGGLVQAGGSLRLSCAASGSISVRYTMGSYRQAPGKERELVAGISRSGGTTYADSVKGRFTISRDNGKNTVYLQMNSLKQEDTAVYYCAAELRRGSGRSYKGYYYWGQGTQVSVSS | low polyreactivity
40 | QVQLVESGGGLVQAGGSLRLSCAASGITFDRYAMGWYRQAPGKERELVAAITSGGRTYYADSVKGRFTISRDNAKNTVYLQMNSLKPEDTAVYYCNATRGQYVGRYYYWGQGTQVTVSS | high polyreactivity
41 | QVQLVESGGGLVQAGGSLRLSCAASGSIFVYNAMGRYRQAPGKERELVAAISRSGASTYYADSVKGRFTISRDNAKNTVYLQMNSLKPEDTAVYYCAAEFRQGGYTFGYWGQGTQVTVSS | high polyreactivity
42 | QVQLVESGGGLVPAGGSLRLSCAASGRIITINAIGWYRKAPGKERELVAAISNSGGRTYADSVKGRFTISRDNAKNTVYLQMNSLKPEDTAVYYCAKRYRFHFWGQGTQVTVSS | low polyreactivity
43 | QVQRVESGGGLVQAGGRLRLSSSASGSIFPTNTMGLSRQSPGKERELVAAITGSGGSRYYADSVKGRFTISRDNAKNTVYLQMNSLKPEDTAVYYCAARYRVDGVKYGYWGQGTQVTVSS | high polyreactivity
